# According to paper PMC2765987 (2009):
# B1: FLAG-tagged PP6R3 (full-length, residues 1-873) [human] / PP6 catalytic subunit, endogenous [human (endogenous in HEK293, HeLa, HepG2, Jurkat)] (parent complex)
# chain 1: MFWKFDLHSSSHIDTLLEREDVTLKELMDEEDVLQECKAQNRKLIEFLLKAECLEDLVSFIIEEPPQDMDEKIRYKYPNISCELLTSDVSQMNDRLGEDESLLMKLYSFLLNDSPLNPLLASFFSKVLSILISRKPEQIVDFLKKKHDFVDLIIKHIGTSAIMDLLLRLLTCIEPPQPRQDVLNWLNEEKIIQRLVEIVHPSQEEDRHSNASQSLCEIVRLSRDQMLQIQNSTEPDPLLATLEKQEIIEQLLSNIFHKEKNESAIVSAIQILLTLLETRRPTFEGHIEICPPGMSHSACSVNKSVLEAIRGRLGSFHELLLEPPKKSVMKTTWGVLDPPVGNTRLNVIRLISSLLQTNTSSINGDLMELNSIGVILNMFFKYTWNNFLHTQVEICIALILASPFENTENATITDQDSTGDNLLLKHLFQKCQLIERILEAWEMNEKKQAEGGRRHGYMGHLTRIANCIVHSTDKGPNSALVQQLIKDLPDEVRERWETFCTSSLGETNKRNTVDLVTTCHIHSSSDDEIDFKETGFSQDSSLQQAFSDYQMQQMTSNFIDQFGFNDEKFADQDDIGNVSFDRVSDINFTLNTNESGNIALFEACCKERIQQFDDGGSDEEDIWEEKHIAFTPESQRRSSSGSTDSEESTDSEEEDGAKQDLFEPSSANTEDKMEVDLSEPPNWSANFDVPMETTHGAPLDSVGSDVWSTEEPMPTKETGWASFSEFTSSLSTKDSLRSNSPVEMETSTEPMDPLTPSAAALAVQPEAAGSVAMEASSDGEEDAESTDKVTETVMNGGMKETLSLTVDAKTETAVFKSEEGKLSTSQDAACKDAEECPETAEAKCAAPRPPSSSPEQRTGQPSAPGDTSVNGPV
# chain 2: MAPLDLDKYVEIARLCKYLPENDLKRLCDYVCDLLLEESNVQPVSTPVTVCGDIHGQFYDLCELFRTGGQVPDTNYIFMGDFVDRGYYSLETFTYLLALKAKWPDRITLLRGNHESRQITQVYGFYDECQTKYGNANAWRYCTKVFDMLTVAALIDEQILCVHGGLSPDIKTLDQIRTIERNQEIPHKGAFCDLVWSDPEDVDTWAISPRGAGWLFGAKVTNEFVHINNLKLICRAHQLVHEGYKFMFDEKLVTVWSAPNYCYRCGNIASIMVFKDVNTREPKLFRAVPDSERVIPPRTTTPYFL
# Variants of: B1
# Assay: co-immunoprecipitation (anti-FLAG) with quantitative fluorescent immunoblotting; expressed in HEK293 cells; endogenous PP6c; 3 independent experiments; parent: 100; read off a plot
row,percent of parent,Variant
1,~91 PP6c / FLAG (wild type = 100),chain 1 D113R
2,~64 PP6c / FLAG (wild type = 100),"chain 1 E259K, chain 1 E262K"
3,~75 PP6c / FLAG (wild type = 100),"chain 1 E204K, chain 1 E205K"
